Results: US12516145B2 (priority 2019, dated 2026)
One block for each compound: values may come before it.

Legend:
Zeta potential analysis = assay type: physicochemical; settings: room temperature
Procedure: (§2) Dynamic Light Scattering (DLS) and Zeta Potential Analysis: DLS and zeta potential analyses were conducted at room temperature on a Zetasizer Nano-ZS (Malvern). The laser for DLS was at a wavelength of 633 nm.

[1] = Transmission electron microscopy (particle size); assay type: physicochemical; settings: for Rcore: estimated by TEM analysis
Procedure: Dry-State Transmission Electron Microscopy (TEM): Twenty microliters of samples were applied onto a 400 mesh carbon grids (Ted Pella, INC.). The grids were observed on a Hitachi HT 7700 microscope operating at 120 kV. The images were recorded with a slow-scan charge-coupled device (CCD) camera (Veleta 2k×2k).

[2] = Dynamic light scattering (hydrodynamic size); assay type: physicochemical; settings: for Dh: hydrodynamic diameter by DLS, photo-PISA at solids content of 15 wt. %; for Rh: hydrodynamic radius by DLS; for hydrodynamic diameter / size by DLS: in water (DIW)
Procedure: as §2

HeLa cells [3] = assay: Flow cytometry for uptake ability in HeLa cells (Example 1); assay type: cell-based, human; settings: rhodamine B-labeled, 0.25 μM with respect to dye, 24 hours
Procedure: Flow Cytometry: The cell uptake study was analyzed via flow cytometry using a BD FacsAria Ilu 4-Laser flow cytometer (Becton Dickinson Inc., USA). Mean fluorescence intensity and PE-A-histogram data was prepared for presentation using FlowJo v10.
For cellular uptake measurements, HeLa cells were plated in 12-well plates at a density of 1,000,000 per well and incubated for 24 hours in a 5% CO2 atmosphere at 37° C. 500 μL of 0.25 μM (with respect to rhodamine) KLA peptide, poly(KLAAm25-co-DMA75), poly(KLAAm25-co-DMA25), and poly(KLAAm10) in 10% FBS DMEM media without phenol red were incubated with the cells for 24 hours respectively. After triple washing with DPBS, 500 μL of 0.25% Trypsin-EDTA was added to each well for 10 min at 37° C. Cells were fixed with a 4% paraformaldehyde solution for 15 min at room temperature.

thermolysin [4] = assay: thermolysin in DPBS solution, molar ratio of thermolysin to peptide 1:300; settings: 55° C.
[5] = cited from earlier work
trypsin [6] = assay: Trypsin-induced cleavage (proteolytic resistance) by RP-HPLC; assay type: in vitro ADME; settings: isolated enzyme trypsin; trypsin 0.1 μM, 200 μM peptide, PBS pH 7.4, 37 °C; read-out: peptide cleaved by trypsin within 1 h
Procedure: For protease-triggered cleavage experiments, the molar ratio of trypsin to peptide was set to 1:2000. Moreover, the temperature was set to 37° C. to match the body temperature. For example, poly[(KLAAm10-co-DMA30)-b-(DAAm70-co-DMA30)](NP1, 0.9 mg, 0.2 μmol with respect to peptides, 2000 equiv.) was dissolved in 1 ml of DPBS solution. […] During the cleavage, aliquots were taken for HPLC analysis at predetermined time points.

HeLa cells [7] = assay: CellTilter-Blue cell viability assay of KLA based materials (Example 1); parameters: species or system human; settings: even at 100 μM with respect to peptide, 72 hours, 37 °C
Procedure: Hela cells were purchased from ATCC. Cells were cultured at 37° C. under 5% CO2 in phenol-red containing Dulbecco's Modified Eagle Medium (DMEM; Gibco Life Tech., cat. #11960-044) supplemented with 10% fetal bovine serum (Omega Scientific, cat. #11140-050), sodium pyruvate (Gibco Life Tech., cat. #35050-061), L-glutamine (Gibco Life Tech., cat. #35050-061), and the antibiotics penicillin/streptomycin (Corning Cellgro, cat. #30-002-C1). Cells were grown in T75 culture flasks and subcultured at ˜75-80% confluency.
The cytotoxicity of materials was assessed using the CellTilter-Blue assay. HeLa cells were plated at a density of 5000 cells per well in a 96 well plate 18 hours prior to treatment. Materials were dissolved in DPBS at the desired concentration and added to the wells along with a 10% DMSO positive control. Cells were incubated for 72 hours at 37° C. Note that the concentration of all the materials is with respect to the peptide concentration to ensure that all peptides and polymers are fairly compared with respect to their therapeutic components. The media was removed and 80 μL of new media without phenol red was added followed by adding 20 μL of CellTilter-Blue reagent. The cells were incubated for 3 hours at 37° C. The fluorescence was measured at 560 nm excitation and 590 nm emission wavelength.

[8] = amine groups; cited from earlier work
thermolysin [9] = molecular target: T1, thermolysin (Bacillus thermoproteolyticus, UniProt P00800); settings: for morphology change of micelles after treatment with thermolysin: TEM and DLS, spherical micelles before treatment
Procedure: Transmission Electron Microscope (TEM): Twenty microliters of sample were applied onto a 400 mesh carbon grids (Ted Pella, INC.). The grids were observed on a Hitachi HT 7700 microscope operating at 120 kV. The images were recorded with a slow-scan charge-coupled device (CCD) camera (Veleta 2k×2k).
Dynamic Light Scattering (DLS): DLS analysis was conducted at room temperature on a Zetasizer Nano-ZS (Malvern). The laser for DLS was at a wavelength of 633 nm.
(§1) For enzyme-triggered cleavage experiments, the molar ratio of thermolysin to peptide was set to 1:300. Moreover, the temperature was set to 55° C. to achieve the optimal activity of thermolysin. For example, poly(PepAm21-co-DMA24) (P4, 1 mg, 0.87 μmol with respect to peptides, 300 equiv.) was dissolved in 1 ml of DPBS solution. Then thermolysin (0.1 mg, 2.9 nmol, 1 equiv.) was added into the polymer solution which was stirred in a preheated oil bath at 55° C. In the case of control experiments which involved using deactivated thermolysin, EDTA (100 equiv. to thermolysin) was utilized to capture the zinc and calcium ions, resulting in denaturing of thermolysin.

thermolysin [10] = molecular target: T1, thermolysin; settings: thermolysin 1/300 equiv. to peptides, 55 °C, DPBS, HPLC
Procedure: Analytical High-Performance Liquid Chromatography (HPLC): Analytical HPLC analysis of peptides was performed on a Jupiter 4μ Proteo 90A Phenomenex column (150×4.60 mm) using a Hitachi-Elite LaChrom L-2130 pump equipped with UV-Vis detector (Hitachi-Elite LaChrom L2420).
as §1

[11] = test system: mitochondrial membrane potential of HeLa cells; assay: Mitochondria membrane potential of HeLa cells with JC-1 probe; assay type: cell-based, human; settings: 2 μM JC-1, excitation 488 nm, NP5 even after 30 min incubation
Procedure: HeLa cells were plated in 4-well, glass bottom dishes at 30,000 cells per well in 500 μL medium. […] The cells were stained with 2 μM of JC-1 at 37° C. for 15 minutes, washed with PBS to remove any membrane-bound, non-internalized fluorophores, and returned to complete medium. For the positive control group, the cells were incubated with 50 μM CCCP and 2 μM of JC-1 probe in DPBS solution simultaneously for 15 min. Before the confocal observation, 1 drop of Hoechst 33342 dye was added to stain the nuclei. Confocal microscope was employed to observe the fluorescence of JC-1 monomer, J-aggregates and Hoechst dye.

HeLa cells [12] = assay: CellTiter-Blue cell viability assay of nanoparticles (Example 2); assay type: cell-based, human; settings: 72 h; for cytotoxicity in HeLa cells: 37 °C, concentration with respect to total KLA peptide content
Procedure: Fluorescence Measurement: CellTiter-Blue® fluorescence measurements were recorded using a Perkin Elmer EnSpire multimode Plate Reader.
HeLa cells were grown in Dulbecco's modified Eagle medium (DMEM) supplemented with 10% fetal bovine serum (FBS), 1% penicillin-streptomycin. Cells were maintained at 37° C. and 5% CO2 with a relative humidity of 95%. HeLa cells were plated in 96-well plates at a density of 5000 per well and then left to attach for 24 h. Subsequently, the cells were treated with the polymers of various concentrations for the desired time followed by washing 3 times with PBS. Then CellTiter-Blue® at 10% (v/v) in complete media was added to each well and incubated for 2 h to allow the live cells to convert resazurin to fluorescent resorufin. The fluorescent signal (Excitation wavelength: 560 nm; Emission wavelength: 600 nm) was then analyzed by a plate reader. Three replicates were performed for each independent sample. 10% DMSO was used as a positive control and untreated cells in complete medium as a negative control. Viability is reported as a percentage of untreated cells.

trypsin [13] = assay: trypsin (0.1 μM) in PBS buffer (pH=7.4), molar ratio of trypsin to peptide 1:2000; settings: 37° C.

T1 sequence (P00800 233-548): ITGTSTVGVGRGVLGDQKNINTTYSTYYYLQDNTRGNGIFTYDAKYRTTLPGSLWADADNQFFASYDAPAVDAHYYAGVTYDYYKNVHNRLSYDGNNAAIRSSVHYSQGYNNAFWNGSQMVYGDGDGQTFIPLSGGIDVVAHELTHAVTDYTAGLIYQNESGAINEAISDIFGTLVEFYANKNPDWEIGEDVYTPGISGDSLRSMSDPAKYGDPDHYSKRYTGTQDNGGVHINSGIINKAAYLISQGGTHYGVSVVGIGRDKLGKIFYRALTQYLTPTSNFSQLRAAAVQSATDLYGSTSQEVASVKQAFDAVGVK

Compound: poly[(KLAAm10-co-DMA30)-b-(DAAm70-co-DMA30)] (KLAKLAKKLAKLAK) [NP1, KLA peptide brush polymer nanoparticle]
- Zeta potential (Zeta potential analysis): 47 mV
- Rcore [1]: 13 nm
- Dh [2]: 36 nm
- Rh [2]: 18 nm

Compound: poly(KLAAm25-co-DMA25)
- cellular uptake by flow cytometry (HeLa cells [3]): clearly outperformed more sparsely grafted polypeptide brushes

- cleaved bond (thermolysin [4]): glycine (G)-leucine (L)
Compound: GPLGLAGG

Compound: C=CC(=O)NCCCCCC(=O)N[C@@H](CCCCN)C(=O)N[C@@H](CC(C)C)C(=O)N[C@@H](C)C(=O)N[C@@H](CCCCN)C(=O)N[C@@H](CC(C)C)C(=O)N[C@@H](C)C(=O)N[C@@H](CCCCN)C(=O)N[C@@H](CCCCN)C(=O)N[C@@H](CC(C)C)C(=O)N[C@@H](C)C(=O)N[C@@H](CCCCN)C(=O)N[C@@H](CC(C)C)C(=O)N[C@@H](C)C(=O)N[C@@H](CCCCN)C(N)=O [KLAAm]
- maximum concentration in water [5]: about 100 mM
- metabolised at 1 h, 200 μM (trypsin [6]): 100%
- cytotoxicity to HeLa cells (HeLa cells [7]): did not exhibit cytotoxicity
- pKa [8]: 9

Compound: PMMA90-b-poly(PepAm21-co-DMA63) [P8]
- morphology change of micelles after treatment with thermolysin (thermolysin [9]): phase transition into a worm-like phase
- change in particle diameter with deactivated thermolysin (thermolysin [9]; thermolysin pretreated with ethylenediaminetetraacetic acid, same cleavage conditions, DLS): no change in diameter
- diameter / average size by TEM ([1]; dry-state TEM): 24 nm
- hydrodynamic diameter / size by DLS [2]: 28 nm

Compound: poly(PepAm6-co-DMA7) [P1]
- time within which thermolysin-induced peptide cleavage was complete (thermolysin [10]): ≤ 1 h

Compound: poly(PepAm21-co-DMA71) [P4]
- time within which thermolysin-induced peptide cleavage was complete (thermolysin [10]): ≤ 1 h
- hydrodynamic diameter / size by DLS [2]: < 10 nm

Compound: NP2: KLA peptide brush polymer nanoparticle: shell KLAAm 10, DMA 30; core DAAm 140, DMA 60 (KLAKLAKKLAKLAK)
- Zeta potential (Zeta potential analysis): 56 mV
- Rcore [1]: 28 nm
- Dh [2]: 62 nm
- Rh [2]: 31 nm

Compound: poly[(KLAAm10-co-DMA10)-b-(DAAm280-co-DMA120)] (KLAKLAKKLAKLAK) [NP5, KLA peptide brush polymer nanoparticle]
- red fluorescence of JC-1 J-aggregates (mitochondrial membrane potential) [11]: almost no red emission
- cytotoxicity in HeLa cells (HeLa cells [12]): dose-dependent cytotoxicity
- toxicity compared between nanoparticles (HeLa cells [12]; HeLa cells): significantly higher than NP3
- Dh [2]: 92 nm

Compound: poly(KLAAm10)
- cellular uptake by flow cytometry (HeLa cells [3]): clearly outperformed more sparsely grafted polypeptide brushes

Compound: CC(C)C[C@H](NC(=O)[C@H](CCCCN)NC(=O)[C@H](C)NC(=O)[C@H](CC(C)C)NC(=O)[C@H](CCCCN)NC(=O)[C@H](CCCCN)NC(=O)[C@H](C)NC(=O)[C@H](CC(C)C)NC(=O)[C@H](CCCCN)NC(=O)[C@H](C)NC(=O)[C@H](CC(C)C)NC(=O)[C@@H](N)CCCCN)C(=O)N[C@@H](C)C(=O)N[C@@H](CCCCN)C(N)=O [KLA peptide, KLAKLAKKLAKLAK, reference compound]
- metabolised at 1 h, 200 μM (trypsin [6]): 100%
- cytotoxicity to HeLa cells (HeLa cells [7]): did not exhibit cytotoxicity

Compound: poly[(KLAAm10-co-DMA10)-b-(DAAm140-co-DMA60)] (KLAKLAKKLAKLAK) [NP4, KLA peptide brush polymer nanoparticle]
- Dh [2]: 64 nm

- fragment found (trypsin [13]): LAK
Compound: KLAKLAKKLAKLAK

Compound: PMMA90-b-poly(PepAm9-co-DMA30) [P7]
- morphology change of micelles after treatment with thermolysin (thermolysin [9]): transition from spherical micelle to fused worm micelles

Compound: PnBA200-b-poly(PepAm36-co-DMA123) [P9]
- morphology change of micelles after treatment with thermolysin (thermolysin [9]): transition from spherical micelle to a mixture of micelles and fiber structure

Compound: poly[(KLAAm10-co-DMA30)-b-(DAAm280-co-DMA120)] (KLAKLAKKLAKLAK) [NP3, KLA peptide brush polymer nanoparticle]
- Zeta potential (Zeta potential analysis): 48 mV
- Rcore [1]: 46 nm
- cytotoxicity in HeLa cells (HeLa cells [12]): dose-dependent cytotoxicity
- Dh [2]: 105 nm
- Rh [2]: 52 nm
